The results in this text go back to US20190359687A1 (Bayer, published 2019).

Experiment [1] deals with T1, human glycophorin A on human red blood cells (human, UniProt P02724 20-150).
T1 construct: whole, on cells; also called human GPA; huGPA
T1 sequence (looked up): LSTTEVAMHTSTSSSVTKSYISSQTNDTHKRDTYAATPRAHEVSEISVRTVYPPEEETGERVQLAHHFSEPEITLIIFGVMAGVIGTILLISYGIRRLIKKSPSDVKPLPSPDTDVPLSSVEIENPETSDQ
Nature of the experiment: partition to human RBC, vWF deficient plasma, 15 min.

In experiment [2] the target is T1, human glycophorin A on human red blood …. Kind of experiment: partition to human RBC, vWF deficient plasma, 5 min.
Experiment [3] shares this target. Nature of the experiment: partition to human RBC, vWF deficient plasma, 120 min.
Experiment [4] deals with T2, Cynomolgus monkey glycophorin A on Cynomolgus monkey red blood cells (Cynomolgus monkey).
T2 construct: whole, on cells; also called Cyno GPA; Cyno RBC
Nature of the experiment: partition to Cyno RBC, human HemA plasma, 120 min.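 Further: FVIII fusion spiked at 1 IU/mL into RBC suspension at whole-blood density.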
Description: To evaluate partition to cynomolgus monkey or human red blood cells, whole blood was draw from Cynomolgus monkey or normal human volunteers in to anticoagulant with 4% sodium citrate (Sigma, St Louis, Mo.). The red blood cells were purified by layering the whole blood on to ficoll followed by low speed centrifugation. The supernatant containing plasma, platelets and white blood cells was discarded and the red blood cell pellet was resuspended in 10 pellet volumes of PBS (50 mM Phosphate buffer, pH7.4, 150 mM NaCl). The red blood cells were then pelleted by slow speed centrifugation and the red blood cells re-suspended in 10 volumes of PBS. This washing step was repeated 4 more times and the red blood cells finally resuspended in a volume of plasma from Hemophilia patients with less than 1% of normal levels of FVIII (GeorgeKing Bio-Medical, Overland Park, Kans.) to generate a total volume equal to the initial blood volume such that the RBC density was equal to that of normal whole blood. BDD and RBC targeted FVIII molecules were then spiked into RBC suspension in HemA plasma at 1 IU/mL, and incubated at room temperature for 2-3 hours with gentle rotation. […] An additional control was performed in which BDD or RBC targeted FVIII molecules were added at 11U/ml into the same human hemophilia A plasma and incubated for 5 minutes and 180 mins. These samples were used to determine the input FVIII activity in the presence of plasma which was used to calculate the percentage of the molecule that was bound to RBC. All plasma samples were then assayed together for FVIII activity using the Coatest SP assay (DiaPharma, Columbus, Ohio). The assay was performed following the manufacturer's instructions in a 96-well plate format. […] The plate was incubated at 37° C. for 10 minutes with shaking between each reagent addition.

In experiment [5] the target is T3, glycophorin A peptide GP5 (human, biotin at the N-terminus).
T3 construct: Residues 42 to 61 of the human glycophorin A extracellular domain
T3 peptide: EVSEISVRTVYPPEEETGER
Nature of the experiment: Octet, GP5 peptide on the probe, fusion protein in solution, 1:1 fit. A general note: Biolayer interferometry detects binding as a change in optical thickness at a sensor tip.

In experiment [6] the target is T1, human glycophorin A on human red blood …. Kind of experiment: partition to human RBC, vWF deficient plasma, 60 min.
Experiment [7] shares this target. Kind of experiment: partition to human RBC, vWF deficient plasma, 1 min.
Experiment [8] has the same target. Kind of experiment: partition to human RBC, vWF deficient plasma, 30 min.

B1: TPP-9423 FVIII-scFv fusion protein (other)
chain: DIQLTQSPSFLSASVGDRVTITCRASSSVRYIYWFQQKPGKAPKLLIYATSFRQSGVPSRFSGSGSGTEYTLTISSLQPEDFATYYCHQRNSFPYTFGQGTKLEIKGGGGSGGGGSGGGGSGGGGSEVQLVQSGAEVKKPGASVKVSCKASGYTFTTYAIHWVRQAPGQGLEWMGYINPSSGYTRYNPKFKGRVTMTRDKSTSTAYMELRSLRSDDTAVYYCWTGTRDYWGQGTTVTVSSGGGSGGGGSGLVPRGSGGGSGGGGSGATRRYYLGAVELSWDYMQSDLGELPVDARFPPRVPKSFPFNTSVVYKKTLFVEFTDHLFNIAKPRPPWMGLLGPTIQAEVYDTVVITLKNMASHPVSLHAVGVSYWKASEGAEYDDQTSQREKEDDKVFPGGSHTYVWQVLKENGPMASDPLCLTYSYLSHVDLVKDLNSGLIGALLVCREGSLAKEKTQTLHKFILLFAVFDEGKSWHSETKNSLMQDRDAASARAWPKMHTVNGYVNRSLPGLIGCHRKSVYWHVIGMGTTPEVHSIFLEGHTFLVRNHRQASLEISPITFLTAQTLLMDLGQFLLFCHISSHQHDGMEAYVKVDSCPEEPQLRMKNNEEAEDYDDDLTDSEMDVVRFDDDNSPSFIQIRSVAKKHPKTWVHYIAAEEEDWDYAPLVLAPDDRSYKSQYLNNGPQRIGRKYKKVRFMAYTDETFKTREAIQHESGILGPLLYGEVGDTLLIIFKNQASRPYNIYPHGITDVRPLYSRRLPKGVKHLKDFPILPGEIFKYKWTVTVEDGPTKSDPRCLTRYYSSFVNMERDLASGLIGPLLICYKESVDQRGNQIMSDKRNVILFSVFDENRSWYLTENIQRFLPNPAGVQLEDPEFQASNIMHSINGYVFDSLQLSVCLHEVAYWYILSIGAQTDFLSVFFSGYTFKHKMVYEDTLTLFPFSGETVFMSMENPGLWILGCHNSDFRNRGMTALLKVSSCDKNTGDYYEDSYEDISAYLLSKNNAIEPRSFSQNDENQSPRSFQKKTRHYFIAAVERLWDYGMSSSPHVLRNRAQSGSVPQFKKVVFQEFTDGSFTQPLYRGELNEHLGLLGPYIRAEVEDNIMVTFRNQASRPYSFYSSLISYEEDQRQGAEPRKNFVKPNETKTYFWKVQHHMAPTKDEFDCKAWAYFSDVDLEKDVHSGLIGPLLVCHTNTLNPAHGRQVTVQEFALFFTIFDETKSWYFTENMERNCRAPCNIQMEDPTFKENYRFHAINGYIMDTLPGLVMAQDQRIRWYLLSMGSNENIHSIHFSGHVFTVRKKEEYKMALYNLYPGVFETVEMLPSKAGIWRVECLIGEHLHAGMSTLFLVYSNKCQTPLGMASGHIRDFQITASGQYGQWAPKLARLHYSGSINAWSTKEPFSWIKVDLLAPMIIHGIKTQGARQKFSSLYISQFIIMYSLDGKKWQTYRGNSTGTLMVFFGNVDSSGIKHNIFNPPIIARYIRLHPTHYSIRSTLRMELMGCDLNSCSMPLGMESKAISDAQITASSYKTNMFATWSPSKARLHLQGRSNAWRPQVNNPKEWLQVDFQKTMKVTGVTTQGVKSLLTSMYVKEFLISSSQDGHQWTLFFQNGKVKVFQGNQDSFTPVVNSLDPPLLTRYLRIHPQSWVHQIALRMEVLGCEAQDLY
notes: also called 9423 (F2196K)
In general, Kd refers to the free concentration of one partner at which half of the binding sites on the other are occupied at equilibrium, for simple one-to-one binding. In general, koff refers to the first-order rate constant of dissociation. A word on the kon: it is a measure of how fast the partners come together. With B1, the “percentage bound to human RBC” value was determined as 89.9% in experiment [1]; 87.4% in experiment [2]; 92.3% in experiment [3]; 80.3% in experiment [6]; 44.1% in experiment [7]; 91.2% in experiment [8]. For the same molecule, the “% bound to Cyno RBC” value in experiment [4] turned out to be 62.8%. Moreover, in experiment [5], the Kd turned out to be 1.27 nM. The molecule also displayed a koff in experiment [5] of 0.00066 s⁻¹. Moreover, the kon in experiment [5] was 520000 M⁻¹ s⁻¹.

B2: TPP-9161 FVIII-scFv fusion protein (other)
chain: ATRRYYLGAVELSWDYMQSDLGELPVDARFPPRVPKSFPFNTSVVYKKTLFVEFTDHLFNIAKPRPPWMGLLGPTIQAEVYDTVVITLKNMASHPVSLHAVGVSYWKASEGAEYDDQTSQREKEDDKVFPGGSHTYVWQVLKENGPMASDPLCLTYSYLSHVDLVKDLNSGLIGALLVCREGSLAKEKTQTLHKFILLFAVFDEGKSWHSETKNSLMQDRDAASARAWPKMHTVNGYVNRSLPGLIGCHRKSVYWHVIGMGTTPEVHSIFLEGHTFLVRNHRQASLEISPITFLTAQTLLMDLGQFLLFCHISSHQHDGMEAYVKVDSCPEEPQLRMKNNEEAEDYDDDLTDSEMDVVRFDDDNSPSFIQIRSVAKKHPKTWVHYIAAEEEDWDYAPLVLAPDDRSYKSQYLNNGPQRIGRKYKKVRFMAYTDETFKTREAIQHESGILGPLLYGEVGDTLLIIFKNQASRPYNIYPHGITDVRPLYSRRLPKGVKHLKDFPILPGEIFKYKWTVTVEDGPTKSDPRCLTRYYSSFVNMERDLASGLIGPLLICYKESVDQRGNQIMSDKRNVILFSVFDENRSWYLTENIQRFLPNPAGVQLEDPEFQASNIMHSINGYVFDSLQLSVCLHEVAYWYILSIGAQTDFLSVFFSGYTFKHKMVYEDTLTLFPFSGETVFMSMENPGLWILGCHNSDFRNRGMTALLKVSSCDKNTGDYYEDSYEDISAYLLSKNNAIEPRSFSQNGGGGSTGGTGGSSGGGTGSGGGGTGGSGGTDIQLTQSPSFLSASVGDRVTITCRASSSVRYIYWFQQKPGKAPKLLIYATSFRQSGVPSRFSGSGSGTEYTLTISSLQPEDFATYYCHQRNSFPYTFGQGTKLEIKGGGGSGGGGSGGGGSGGGGSEVQLVQSGAEVKKPGASVKVSCKASGYTFTTYAIHWVRQAPGQGLEWMGYINPSSGYTRYNPKFKGRVTMTRDKSTSTAYMELRSLRSDDTAVYYCWTGTRDYWGQGTTVTVSSGGGGSQNPPVLKRHQREITDENQSPRSFQKKTRHYFIAAVERLWDYGMSSSPHVLRNRAQSGSVPQFKKVVFQEFTDGSFTQPLYRGELNEHLGLLGPYIRAEVEDNIMVTFRNQASRPYSFYSSLISYEEDQRQGAEPRKNFVKPNETKTYFWKVQHHMAPTKDEFDCKAWAYFSDVDLEKDVHSGLIGPLLVCHTNTLNPAHGRQVTVQEFALFFTIFDETKSWYFTENMERNCRAPCNIQMEDPTFKENYRFHAINGYIMDTLPGLVMAQDQRIRWYLLSMGSNENIHSIHFSGHVFTVRKKEEYKMALYNLYPGVFETVEMLPSKAGIWRVECLIGEHLHAGMSTLFLVYSNKCQTPLGMASGHIRDFQITASGQYGQWAPKLARLHYSGSINAWSTKEPFSWIKVDLLAPMIIHGIKTQGARQKFSSLYISQFIIMYSLDGKKWQTYRGNSTGTLMVFFGNVDSSGIKHNIFNPPIIARYIRLHPTHYSIRSTLRMELMGCDLNSCSMPLGMESKAISDAQITASSYKTNMFATWSPSKARLHLQGRSNAWRPQVNNPKEWLQVDFQKTMKVTGVTTQGVKSLLTSMYVKEFLISSSQDGHQWTLFFQNGKVKVFQGNQDSFTPVVNSLDPPLLTRYLRIHPQSWVHQIALRMEVLGCEAQDLY
notes: also called PPB 7644
In the case of B2, the “percentage bound to human RBC” value in experiment [1] came to 82.9%; in experiment [2], 78.4%; in experiment [3], 84.2%; in experiment [6] it was 86.2%; in experiment [7], 51.4%; in experiment [8], 85.9%.
